Laboratory results as given in the supplement of paper PMC12636428.

Test system: Saccharomyces cerevisiae
Test: transcriptional activation domain activity (GFP:mCherry ratio, weighted mean of sorted bins, harmonized to initial dataset scale) (arbitrary fluorescence ratio units); higher = stronger transcriptional activation
Details: beta-estradiol 1 µM; induction time 4 h
Procedure, shortened: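 The activation activity of each tile is the read-weighted mean of bin median fluorescence, averaged across its barcodes and mapped linearly onto the scale of the initial dataset. Tiles were fused to an estradiol-inducible synthetic transcription factor, barcoded, and integrated at URA3 in yeast diploids carrying a GFP reporter. Induction used 1 uM beta-estradiol in SC for 4 hours at 30 °C, after which cells were sorted into 8 GFP:mCherry bins, and any tile with fewer than 50 reads was dropped.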

With “YHFALSYKRWINRVIIMIWCKLWWLRWCAFMQLFFRRNLRYNFWWRWIRVAGV” the “transcriptional activation domain activity” value was 56700.
In the case of “YHFCYHLRLYLYAFQPPLFLRLCHFFSYDGWYLGFTWGFFLFFRFHFPIPSFL”, the “transcriptional activation domain activity” value was 45900.
In the case of “YHTRNRLLLLCAQAHELAVLGVRELARCLRYLPKVHYMPVHWSTIFTWAEFCA”, the “transcriptional activation domain activity” value was 75600.
In the case of “YHVQQSNIQLYDNDQVHIFLRKHFLYWLEALSLIGRLYEGVLALKILESILTL”, the “transcriptional activation domain activity” value was 61500.
“YIAPCGSWTPYMNLMLGGTVCIFIGFDVFSPFSYRGFITNYFGLFWFCIMFIF” was tested, and the “transcriptional activation domain activity” value was 53600.
For “YIAPCGTWTPYMNLFLGSTVCIFIGFDVFAPFSYRGLITNYFGLLWFCFMFLF”, the “transcriptional activation domain activity” value was 78400.
“YIATGRGFATTRISFSILYSRFAGPSIYMGMRNLLLLLYATIAIWMPHLIYFW” was tested, and the “transcriptional activation domain activity” value was 48100.
With “YICQYHGSLIGKHFKSLMQVMPFLIYDLVAQDILCAWNIIGVLVVLLWHTEIE” the “transcriptional activation domain activity” value was 81900.
“YIFMISLSSYSLSLINTLVSFGLLLLYTPSYRLWGWNPPFRAPKIIIFLFFLS” was tested, and the “transcriptional activation domain activity” value was 48300.
“YIIPFAWLAAIGHFAVSLVIFDFAPLIHTWDVTLETLSHWLFYFRLSSILYNF” was tested, and the “transcriptional activation domain activity” value was 35200.
“YIKGVVLALWILDTFGMCLIFHILYWYLITNYGNPLSITEPIWSIILHIMVTA” was tested, and the “transcriptional activation domain activity” value was 48500.
For “YIKVLVAVLFVLDTLHVYYLSATFWVVCIRGRLDISGLTVLPWQTPASILMTV”, the “transcriptional activation domain activity” value was 42300.
In the case of “YILARYSIFFLYYLQFSRGYIPEYLNPTLPSYEEIESWLFLKTVWFQVLIWTV”, the “transcriptional activation domain activity” value was 65500.
With “YILAVGLILRLISYLSRAKVRLMYHWSELWRNLLSLIRFLNTYSADLLSSSTP” the “transcriptional activation domain activity” value was 66700.
With “YILRLFRDYVFFQVDANGKRTFDLGHMMECLLRMDCGSDELICLTSSDEKNVI” the “transcriptional activation domain activity” value was 49100.
With “YILSSLVTYKGIINHNDQSILILGIPKLHRLLMENVHVLHLLINSCITTLASC” the “transcriptional activation domain activity” value was 44000.
For “YILYMLRMSVRELTRSELLIVRLGRPTKLIIAGNWEINLLGIFVGLGIVCTEV”, the “transcriptional activation domain activity” value was 59400.
For “YINAMLGLPRSISPDDFDQTLPLDLSDENITEVAYLPENQHSVLSSTGISNEH”, the “transcriptional activation domain activity” value was 58400.
For “YINCGIKMFDPSSIITRRYIRMWPRKQANRVLGMLDKMSQSGGFTKVFFRLLY”, the “transcriptional activation domain activity” value was 58000.
For “YIPEHLRSYVLVAHLLEMCNLHTVFLPQLLDPLIVLCLQHRLTIQAFAFIKTR”, the “transcriptional activation domain activity” value was 77300.
“YIPVNYFLVVLYSNKEYPGLYKEIEKGLILLYHICTIRNDGTMFLNMKLYKNK” was tested, and the “transcriptional activation domain activity” value was 36000.
For “YIQDIQCLQFENGGVGRMELEAKHWMIYHGILLAKILRLLEDSPLKRFTIVNA”, the “transcriptional activation domain activity” value was 47800.
For “YISHSRCLLVFPVLPFFVHYLLFVFSFALLQIIALEILSLVLFVLDLLSLFPH”, the “transcriptional activation domain activity” value was 32800.
In the case of “YKCVGLSPDCKTAFFMNVTAFLVCPLANFESGKIPKTDLILLSKSSRECKYKA”, the “transcriptional activation domain activity” value was 29600.
“YKEWDELVKYFFRQVTKRVQERPELVVEMLFSKIPATIFFLDHGYDRELPSRA” was tested, and the “transcriptional activation domain activity” value was 46400.
For “YKKLQWHYFLFDLCYYVNILNFVFLWIFPHSPSLFVACYCLSLGSVASAIITW”, the “transcriptional activation domain activity” value was 27700.
For “YKNLSKYPIVKSAVALISLVQSLCRTMHSMPFHTEEYIRMIEVVLLKYYEKCY”, the “transcriptional activation domain activity” value was 34300.
“YKTCILPGADPGVNYIVGDDYLAVNYGYYVWQRWINFIAVCLFFLFFTVLTCL” was tested, and the “transcriptional activation domain activity” value was 55900.
With “YKTLDSCCSQLEGYLSRFALKLSHTHLLHLQRLLTLLHAFIAFTKEWQHNARK” the “transcriptional activation domain activity” value was 59400.
With “YKTTMARLIYLMDDKFKLFDHLRALKKYLLLGQGDFIALLMESLASNLDRPAN” the “transcriptional activation domain activity” value was 55100.
For “YKVPTASLKDGCLCVNVASEKNFEKDVREKASIYLPSVGKVTILMLLRNLLRL”, the “transcriptional activation domain activity” value was 55000.
With “YLAGPRVPFAPLSLPGIFLPTTWWNPGVFYFWTWRNHFYKTWGETVGFAPWFS” the “transcriptional activation domain activity” value was 80500.
With “YLAYCWQPDISWCPNLTLLNHWYNLTPYWFILMFIWNNLSCILMMINMIQLYF” the “transcriptional activation domain activity” value was 67800.
In the case of “YLEWLLLHHIHTIVGRRKDINWHIVCMDRWNIWYNTLRLSDTFALVGIIISIF”, the “transcriptional activation domain activity” value was 58500.
In the case of “YLFLFYLTILVWFGLFYFIQFFFYLSFHFLFCFVLLLFFTFVFWGVFIFCFFF”, the “transcriptional activation domain activity” value was 45500.
For “YLFYRLGLNIREIQLRSRGLILLQSLSVLGWSLLASSFSGLYFIGYPCFIHWW”, the “transcriptional activation domain activity” value was 42700.
In the case of “YLHAVLCELQSSFNRKATTRSKLTHTPNLPEYTFPFAWLTLPFAAARRCTPAG”, the “transcriptional activation domain activity” value was 66600.
In the case of “YLIGFIGFVMSLQKQYLKSQFGLFCWVHMSLLVIVVSSHFIINNIFEGLIWFW”, the “transcriptional activation domain activity” value was 79300.
In the case of “YLIIISFFSFSFYLLIHMQYINPKGHPPLKFYQLIIWRWCATMCAYFFLSLAY”, the “transcriptional activation domain activity” value was 62000.
“YLIILILFCFCHLWELDRWAHSLASQEKLRYSCVIGLTIFRLRCPLSLTKDAP” was tested, and the “transcriptional activation domain activity” value was 48900.
In the case of “YLINLLYQLLWLVPFSAPLSLRSTLAKVYEFGGVHSGSAICSVLWFILLTVFL”, the “transcriptional activation domain activity” value was 64900.
With “YLIRLILVILLMEFMLHYIYVQALCKSKNFENYTPYQLLMISFFSLKFIWLKL” the “transcriptional activation domain activity” value was 58900.
“YLKELTRCAKLPYSTRAMKNLNNVAITCACTLLVSVPHFNFRGDLLKIIVAKV” was tested, and the “transcriptional activation domain activity” value was 39500.
For “YLMHGLVLFSIVPSVFIPIYEYHQLSYIAASMICAFIYIIFAVICGWLFWWTV”, the “transcriptional activation domain activity” value was 40600.
For “YLMVLYYTSRPVLFLVCAGNELCFIFIYCLGWFSHWLLWLGLLISIPVCLFKQ”, the “transcriptional activation domain activity” value was 71800.
With “YLPTLPDAFPFGADIGSLDAISNIPWMSWNPVMAHFSFPWFMDELEMPLELPD” the “transcriptional activation domain activity” value was 102000.
For “YLPYIVFPLTPQLSGPLCELYPSRGNLYDIFLHSILIMMQLPFILSVPFWLLF”, the “transcriptional activation domain activity” value was 45500.
“YLSFLGIGVTFYTFLLLFFFLEDLEDFLVFFEGVLMIFLKLFIVFWTSLLVFL” was tested, and the “transcriptional activation domain activity” value was 62000.
In the case of “YLTRHVRLFGKLFRRMQQLHATRFVTLPLSSDLILYYWSKVVQASTALPEFIA”, the “transcriptional activation domain activity” value was 51600.
With “YLVHAGVTQDFSLIGRKGVYSLGELEEIRHWVHQALLHCRLLLVCRKALQLVY” the “transcriptional activation domain activity” value was 71800.
For “YLVMVYAWILWLSLVVLLALIAFYLFMVIWNIDRGTPSPVCLVVFCMQFICTL”, the “transcriptional activation domain activity” value was 44200.
With “YLVRHRGEIFDNFQARKEQLLCPVYIRWLRLIWQILLSCCHVIFKSHPWMVFM” the “transcriptional activation domain activity” value was 57700.
“YLYLCLQLLYYCRYCVFAIYTCHLPFAYTCMLMLLATGPYFYGLFICLRYLCC” was tested, and the “transcriptional activation domain activity” value was 24900.
“YMCTCAWSVIWAQQLYTRGPLLQFIAKHTNYAGKPSMTFNQIVLLWVLYQIQG” was tested, and the “transcriptional activation domain activity” value was 49800.
“YMEIVCEKQLLVVSKVNRGWLYMAITQADLVYWATLSLASHYRDSKSVALTYF” was tested, and the “transcriptional activation domain activity” value was 62500.
With “YMGSVNLVHYYGVRTFSFILLGPCLTLVVVYRVLALFQSANQQFYILVLAYIA” the “transcriptional activation domain activity” value was 36200.
In the case of “YMIGLLFRTYFKLKSLNLCKNVLRAVSVSELPSLSEFPKAHQVTFRYYTGVLS”, the “transcriptional activation domain activity” value was 70100.
For “YMYLVIVVTFLSILKTSQAIAVVWVQNVLFFANPDIARTLLNIAWWQNSVTLM”, the “transcriptional activation domain activity” value was 54800.
In the case of “YMYSAFMRFFILGWPSYLVVVASIAVVLLLHILYFLVQLQLKNIFLLLLHCFA”, the “transcriptional activation domain activity” value was 60400.
In the case of “YNGLPRFKWFISTVWVIYAGSCLLPFAGMVGTQILPLNRCIGVFKKPYPAILF”, the “transcriptional activation domain activity” value was 63300.
For “YNGYHKVGEHYLLCKAVVDHKKKSSIHVHLIEVQPTVFNILEGLLYPKILFSS”, the “transcriptional activation domain activity” value was 53500.
For “YNIRAKGFNIFNITISVALVFNQYVNPIALAALTWKYYVVYCVWLVCECIFLY”, the “transcriptional activation domain activity” value was 60100.
With “YNIRAKGFNIFNITISVGLIFNQYVNPIALAVLTWKYYVVYCAWLLCEVLFLY” the “transcriptional activation domain activity” value was 81900.
In the case of “YNLVLSHNLVLSHLWHHYYVQHLHGLLRSFSSINLPFLLHLPLSLLLLHWVTW”, the “transcriptional activation domain activity” value was 55700.
With “YNVWILFRHLVDLILLNDFVAYSLFGFSWMQFSPNHSTFFHVLRWIGGWSLVG” the “transcriptional activation domain activity” value was 69200.
In the case of “YPFLLKLCFDIFLLPLHFFYFPFFFSLITHYIFFFTGTLSHLYICFILLCLFL”, the “transcriptional activation domain activity” value was 36400.
With “YPKALPFYGKILGYMTSIYDTIARLAFLKTLQPQGPLDYMLWLVIMTATRIFY” the “transcriptional activation domain activity” value was 53800.
For “YPLLVCLLDLVKNNSLDDTGWLIGLGCTLWYENSIYIVRKAMELCLRAQEKID”, the “transcriptional activation domain activity” value was 52000.
In the case of “YPNLSGNTFICSSRGSITGRMTVSGDDFIASQYDYSYSHVWRNLGILIAFWIF”, the “transcriptional activation domain activity” value was 53500.
With “YPVGKQVLARYPETTTFYRAEVMGTKRDGTCRLKFEGEEEVGKETEVERRLVL” the “transcriptional activation domain activity” value was 77100.
“YQKLLVDARQAAEMFFKMLHYELWTHLLERLLRLRQMCNHWSLCKKKGMENCR” was tested, and the “transcriptional activation domain activity” value was 54300.
With “YQLASDRSADCGLLRLVLDAQTFGATAAVIVLDWARPWRFIKSLLRWMHVLST” the “transcriptional activation domain activity” value was 42000.
In the case of “YQNLYFIQLLVSCWALIGMLHLSLNRFEHLHFMVYMRPSGSKYLVAISWCLFL”, the “transcriptional activation domain activity” value was 66900.
For “YQTGYFSEAHFFLFFLFFYFRKSFSFQSNCISYTLPFGLLPIFFSTTIVLFWF”, the “transcriptional activation domain activity” value was 66400.
With “YQVYYYYQHFRNDAFGMQCLVYGASLINLLHSILLPKCVYFWVSTYWGNLSAL” the “transcriptional activation domain activity” value was 60400.
With “YQWVNYDLDTICMNFWTLKFLPDELPPIKHFSVVANDCKLFMYNVMGIIRFMS” the “transcriptional activation domain activity” value was 82700.
In the case of “YRALHQRIWDEGLYECNYRAYAIECTRYVLLFTLMWVCLYFQRYFLGAFFLGA”, the “transcriptional activation domain activity” value was 83700.
With “YREIPPEQLHGFPRIVDDINYNPVFLFDTFAAYTTLINYWMHMLILRSNTFLL” the “transcriptional activation domain activity” value was 53100.
With “YRHLKPIMISSPVFCYLQLLGLIMCYLSLLVKVGKPSPSICISRQFLLPMGFV” the “transcriptional activation domain activity” value was 43200.
With “YRISLAILQLCKDHLLQSCPTNSEILAFLLHIPHDYLTADVLLDTAFHIKLSK” the “transcriptional activation domain activity” value was 54000.
For “YRLLLSLVVRLYFFLRFSLSHTLRTVVIVLAPLTYFLSGITYIFFTAPYRVLF”, the “transcriptional activation domain activity” value was 61800.
For “YRSRGIDEGRGKREAGRERERAERRSTKEAEKGGEGRWEGRSARRKEAGGKKG”, the “transcriptional activation domain activity” value was 56700.
With “YRTSQDLVGLSTVLEQYFNIGGLTGLLIIGDLIHCGLLPMPSIITWTRLIAHV” the “transcriptional activation domain activity” value was 68800.
